Test results taken from US20100004431A1 (Xencor, published 2010).
Where two headings read alike, the source gives them in different places.

What was measured:
[1] = target: T1, CD25 (R&D systems cat. #223-2A/CF) (UniProt P01589 22-213, limits assumed); assay: Biacore (SPR); antibody captured on Protein A, CD25 injected
T1 construct: Bought soluble protein
T1 sequence (looked up): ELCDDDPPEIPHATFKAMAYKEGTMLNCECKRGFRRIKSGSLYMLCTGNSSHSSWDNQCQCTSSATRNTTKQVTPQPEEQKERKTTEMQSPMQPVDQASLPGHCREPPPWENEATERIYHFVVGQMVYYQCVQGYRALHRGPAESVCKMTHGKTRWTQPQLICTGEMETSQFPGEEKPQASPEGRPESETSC
Procedure: (§1) Binding was measured by injection of two-fold serial dilutions of CD25 (0 nM to 50 nM; R&D systems) in buffer at 25° C. with a flow rate of 25-30 μL/min for 2 min followed by a dissociation phase of 4-5 min. Association rates (kₒₙ) and dissociation rates (koff) were calculated using a simple one-to-one Langmuir binding model (BIAcore Evaluation Software version 3.2). The equilibrium dissociation constant (Kd) was calculated as the ratio of koff/kₒₙ).

[2] = target: T1, CD25 (R&D systems cat. #223-2A/CF); assay: as above; remark: listed apart in the source
Procedure: as §1

Row | Binder | Fold change in Kd vs. H1L1 [1] [fold] | Kd [1] [nM] | koff [1] [s⁻¹] | kon [1] [M⁻¹ s⁻¹] | Fold change in Kd vs. H0L0 [2] [fold] | Kd [2] [nM] | koff [2] [s⁻¹] | kon [2] [M⁻¹ s⁻¹]
1 | anti-CD25 H1.1L1 (antibody, V domains shown, Single variant in the anti-CD25 H1L1 background; also called VH A71R single variant) VH: QVQLVQSGAEVKKPGASVKVSCKASGYTFTSYRMHWVRQAPGQGLEWMGYINPSTGYTEYNQKFQGRVTITRDKSISTAYMELSRLRSDDTAVYYCARGGGVFDYWGQGTLVTVSS VL: QIVLTQSPATLSLSPGERATLSCRASSSISYMHWFQQKPGQSPQLLIYTTSNLASGVPARFSGSGSGTDYTLTISSLQPEDFAVYYCHQRSTYPLTFGSGTKLEIK | 2 | 0.16 | 0.00031 | 1.9e+06 | – | – | – | –
2 | anti-CD25 H1.22L1.56 (antibody, V domains shown) VH: QVQLVQSGAEVKKPGASVKVSCKASGYTFTSYRMHWVRQAPGQGLEWMGWINPNSGGTNYAQKFQGRVTITRDTSISTAYMELSRLRSDDTAVYYCARGGGVFDYWGQGTLVTVSS VL: QIVLTQSPATLSLSPGERATLSCRASQSVSYLHWFQQKPGQSPQLLIYTTSNRATGIPARFSGSGSGTDFTLTISSLEPEDFAVYYCHQRSTYPLTFGSGTKLEIK | – | – | – | – | 1.2 | 0.22 | 0.00022 | 970000
3 | anti-CD25 H1.12L1.56 (antibody, V domains shown) VH: not shown VL: QIVLTQSPATLSLSPGERATLSCRASQSVSYLHWFQQKPGQSPQLLIYTTSNRATGIPARFSGSGSGTDFTLTISSLEPEDFAVYYCHQRSTYPLTFGSGTKLEIK | – | – | – | – | 1.2 | 0.21 | 0.00018 | 850000
4 | anti-CD25 H1.22L1.20 (antibody, V domains shown) VH: QVQLVQSGAEVKKPGASVKVSCKASGYTFTSYRMHWVRQAPGQGLEWMGWINPNSGGTNYAQKFQGRVTITRDTSISTAYMELSRLRSDDTAVYYCARGGGVFDYWGQGTLVTVSS VL: EIVLTQSPATLSLSPGERATLSCRASQSVSYLHWYQQKPGQAPRLLIYTTSNRATGIPARFSGSGSGTDFTLTISSLEPEDFAVYYCHQRSTYPLTFGSGTKLEIK | – | – | – | – | 1.1 | 0.24 | 0.00018 | 720000
5 | anti-CD25 H1.22L1.48 (antibody, V domains shown) VH: QVQLVQSGAEVKKPGASVKVSCKASGYTFTSYRMHWVRQAPGQGLEWMGWINPNSGGTNYAQKFQGRVTITRDTSISTAYMELSRLRSDDTAVYYCARGGGVFDYWGQGTLVTVSS VL: EIVLTQSPATLSLSPGERATLSCRASQSVSYMHWYQQKPGQAPRLLIYTTSNRATGIPARFSGSGSGTDFTLTISSLEPEDFAVYYCHQRSTYPLTFGSGTKLEIK | – | – | – | – | 1.5 | 0.17 | 0.00014 | 780000
6 | anti-CD25 H1.23L1.56 (antibody, V domains shown) VH: not shown VL: QIVLTQSPATLSLSPGERATLSCRASQSVSYLHWFQQKPGQSPQLLIYTTSNRATGIPARFSGSGSGTDFTLTISSLEPEDFAVYYCHQRSTYPLTFGSGTKLEIK | – | – | – | – | 1.2 | 0.21 | 0.0002 | 950000
7 | anti-CD25 H1.14L1.43 (antibody, V domains shown) VH: not shown VL: EIVLTQSPATLSLSPGERATLSCRASQSVSYLHWYQQKPGQAPRLLIYTTSNRATGIPARFSGSGSGTDYTLTISSLQPEDFAVYYCHQRSTYPLTFGSGTKLEIK | – | – | – | – | -1.3 | 0.32 | 0.00022 | 670000
8 | anti-CD25 H1.12L1.43 (antibody, V domains shown) VH: not shown VL: EIVLTQSPATLSLSPGERATLSCRASQSVSYLHWYQQKPGQAPRLLIYTTSNRATGIPARFSGSGSGTDYTLTISSLQPEDFAVYYCHQRSTYPLTFGSGTKLEIK | – | – | – | – | 1.4 | 0.19 | 0.00014 | 720000
9 | anti-CD25 H1.14L1.56 (antibody, V domains shown) VH: not shown VL: QIVLTQSPATLSLSPGERATLSCRASQSVSYLHWFQQKPGQSPQLLIYTTSNRATGIPARFSGSGSGTDFTLTISSLEPEDFAVYYCHQRSTYPLTFGSGTKLEIK | – | – | – | – | 1.6 | 0.16 | 0.00017 | 1e+06
10 | anti-CD25 H1.22L1.43 (antibody, V domains shown) VH: QVQLVQSGAEVKKPGASVKVSCKASGYTFTSYRMHWVRQAPGQGLEWMGWINPNSGGTNYAQKFQGRVTITRDTSISTAYMELSRLRSDDTAVYYCARGGGVFDYWGQGTLVTVSS VL: EIVLTQSPATLSLSPGERATLSCRASQSVSYLHWYQQKPGQAPRLLIYTTSNRATGIPARFSGSGSGTDYTLTISSLQPEDFAVYYCHQRSTYPLTFGSGTKLEIK | – | – | – | – | -1.1 | 0.3 | 0.00019 | 640000
11 | anti-CD25 H1L1.56 (antibody, V domains shown, the fourth VL chain; also called VL combination variant L1.56 paired with H1) VH: QVQLVQSGAEVKKPGASVKVSCKASGYTFTSYRMHWVRQAPGQGLEWMGYINPSTGYTEYNQKFQGRVTITADKSISTAYMELSRLRSDDTAVYYCARGGGVFDYWGQGTLVTVSS VL: QIVLTQSPATLSLSPGERATLSCRASQSVSYLHWFQQKPGQSPQLLIYTTSNRATGIPARFSGSGSGTDFTLTISSLEPEDFAVYYCHQRSTYPLTFGSGTKLEIK | – | – | – | – | -5 | 1.3 | 0.0007 | 540000
12 | anti-CD25 H1L1.7 (antibody, V domains shown, Single variant in the anti-CD25 H1L1 background; also called VL Q79E single variant) VH: QVQLVQSGAEVKKPGASVKVSCKASGYTFTSYRMHWVRQAPGQGLEWMGYINPSTGYTEYNQKFQGRVTITADKSISTAYMELSRLRSDDTAVYYCARGGGVFDYWGQGTLVTVSS VL: QIVLTQSPATLSLSPGERATLSCRASSSISYMHWFQQKPGQSPQLLIYTTSNLASGVPARFSGSGSGTDYTLTISSLEPEDFAVYYCHQRSTYPLTFGSGTKLEIK | 1.2 | 0.28 | 0.00054 | 2e+06 | – | – | – | –
13 | anti-CD25 H1L1.5 (antibody, V domains shown, Single variant in the anti-CD25 H1L1 background; also called VL Q1E single variant) VH: QVQLVQSGAEVKKPGASVKVSCKASGYTFTSYRMHWVRQAPGQGLEWMGYINPSTGYTEYNQKFQGRVTITADKSISTAYMELSRLRSDDTAVYYCARGGGVFDYWGQGTLVTVSS VL: EIVLTQSPATLSLSPGERATLSCRASSSISYMHWFQQKPGQSPQLLIYTTSNLASGVPARFSGSGSGTDYTLTISSLQPEDFAVYYCHQRSTYPLTFGSGTKLEIK | 1.1 | 0.29 | 0.00052 | 1.8e+06 | – | – | – | –
14 | anti-CD25 H1L1.48 (antibody, V domains shown, also called VL combination variant L1.48 paired with H1) VH: QVQLVQSGAEVKKPGASVKVSCKASGYTFTSYRMHWVRQAPGQGLEWMGYINPSTGYTEYNQKFQGRVTITADKSISTAYMELSRLRSDDTAVYYCARGGGVFDYWGQGTLVTVSS VL: EIVLTQSPATLSLSPGERATLSCRASQSVSYMHWYQQKPGQAPRLLIYTTSNRATGIPARFSGSGSGTDFTLTISSLEPEDFAVYYCHQRSTYPLTFGSGTKLEIK | – | – | – | – | -2.4 | 0.63 | 0.00031 | 500000
15 | anti-CD25 H1.4L1 (antibody, V domains shown, Single variant in the anti-CD25 H1L1 background; also called VH K73T single variant) VH: QVQLVQSGAEVKKPGASVKVSCKASGYTFTSYRMHWVRQAPGQGLEWMGYINPSTGYTEYNQKFQGRVTITADTSISTAYMELSRLRSDDTAVYYCARGGGVFDYWGQGTLVTVSS VL: QIVLTQSPATLSLSPGERATLSCRASSSISYMHWFQQKPGQSPQLLIYTTSNLASGVPARFSGSGSGTDYTLTISSLQPEDFAVYYCHQRSTYPLTFGSGTKLEIK | 1.1 | 0.3 | 0.0006 | 2e+06 | – | – | – | –
16 | anti-CD25 H1L1.43 (antibody, V domains shown, also called VL combination variant L1.43 paired with H1) VH: QVQLVQSGAEVKKPGASVKVSCKASGYTFTSYRMHWVRQAPGQGLEWMGYINPSTGYTEYNQKFQGRVTITADKSISTAYMELSRLRSDDTAVYYCARGGGVFDYWGQGTLVTVSS VL: EIVLTQSPATLSLSPGERATLSCRASQSVSYLHWYQQKPGQAPRLLIYTTSNRATGIPARFSGSGSGTDYTLTISSLQPEDFAVYYCHQRSTYPLTFGSGTKLEIK | – | – | – | – | -5 | 1.3 | 0.00053 | 410000
17 | anti-CD25 H1L1.6 (antibody, V domains shown, Single variant in the anti-CD25 H1L1 background; also called VL Q45R single variant) VH: QVQLVQSGAEVKKPGASVKVSCKASGYTFTSYRMHWVRQAPGQGLEWMGYINPSTGYTEYNQKFQGRVTITADKSISTAYMELSRLRSDDTAVYYCARGGGVFDYWGQGTLVTVSS VL: QIVLTQSPATLSLSPGERATLSCRASSSISYMHWFQQKPGQSPRLLIYTTSNLASGVPARFSGSGSGTDYTLTISSLQPEDFAVYYCHQRSTYPLTFGSGTKLEIK | 1 | 0.32 | 0.00057 | 1.8e+06 | – | – | – | –
18 | anti-CD25 H1L1.20 (antibody, V domains shown, also called VL combination variant L1.20 paired with H1) VH: QVQLVQSGAEVKKPGASVKVSCKASGYTFTSYRMHWVRQAPGQGLEWMGYINPSTGYTEYNQKFQGRVTITADKSISTAYMELSRLRSDDTAVYYCARGGGVFDYWGQGTLVTVSS VL: EIVLTQSPATLSLSPGERATLSCRASQSVSYLHWYQQKPGQAPRLLIYTTSNRATGIPARFSGSGSGTDFTLTISSLEPEDFAVYYCHQRSTYPLTFGSGTKLEIK | – | – | – | – | -4.2 | 1.1 | 0.00048 | 430000
19 | anti-CD25 H1.14L1.48 (antibody, V domains shown) VH: not shown VL: EIVLTQSPATLSLSPGERATLSCRASQSVSYMHWYQQKPGQAPRLLIYTTSNRATGIPARFSGSGSGTDFTLTISSLEPEDFAVYYCHQRSTYPLTFGSGTKLEIK | – | – | – | – | 1.2 | 0.21 | 0.00017 | 790000
20 | anti-CD25 H1.23L1.20 (antibody, V domains shown) VH: not shown VL: EIVLTQSPATLSLSPGERATLSCRASQSVSYLHWYQQKPGQAPRLLIYTTSNRATGIPARFSGSGSGTDFTLTISSLEPEDFAVYYCHQRSTYPLTFGSGTKLEIK | – | – | – | – | 1.2 | 0.22 | 0.00016 | 710000
21 | anti-CD25 H1.23L1.48 (antibody, V domains shown) VH: not shown VL: EIVLTQSPATLSLSPGERATLSCRASQSVSYMHWYQQKPGQAPRLLIYTTSNRATGIPARFSGSGSGTDFTLTISSLEPEDFAVYYCHQRSTYPLTFGSGTKLEIK | – | – | – | – | 1.1 | 0.23 | 0.00018 | 750000
